Source: patent US20240270846A1 (published 2024)
Changes are numbered by the printed parent chain. Names may count otherwise.

T1: cynomolgus monkey CD137 (cynomolgus monkey, UniProt Q07011 24-186 (human entry), limits assumed)
T1 construct: Soluble analyte in the Biacore assay; also called cyno CD137
T1 chain: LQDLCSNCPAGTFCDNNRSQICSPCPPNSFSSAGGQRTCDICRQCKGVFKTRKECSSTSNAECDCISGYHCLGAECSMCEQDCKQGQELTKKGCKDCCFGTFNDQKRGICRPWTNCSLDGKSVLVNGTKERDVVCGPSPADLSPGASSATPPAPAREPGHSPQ

B1: dBBDu_186 / dBBDu_L098 (antibody, human IgG1, V domains shown)
VH: QVQLVESGGGLVQPGRSLRLSCAASGFTFSNAWMHWVRQAPGKGLEWVAQIKDRSNQYATYYAPSVKGRFTISRDDSKNSIYLQMNSLKTEDTAVYYCHYVHYAQASTVLPAFGVDAWGQGTTVTVSS
VL: DIVMTQSPLSLPVTPGEPASISCAASEELVHINRYIFLHWYQQKPGQAPRLLIYKVSNRFIGVPDRFSGSGSGTDFTLKISRVEAEDVGVYYCAQGSQVPFTFGQGTKLEIK
notes: Tested as IgG (human IgG1 constant region, kappa light chain); also called dBBDu186/L098
B2: dBBDu_189 / dBBDu_L119 (antibody, human IgG1, V domains shown)
VH: B1 VH with V48I, T108S, V109L, A112S
VL: B1 VL with A24T, E27Q, Y35F
notes: Tested as IgG (human IgG1 constant region, kappa light chain); also called dBBDu189/L119
B3: dBBDu_186 / dBBDu_L108 (antibody, human IgG1, V domains shown)
VH: B1 VH
VL: B1 VL with A24R, A25T, V30L, Y35F, I36T, I61M, Q98A
notes: Tested as IgG (human IgG1 constant region, kappa light chain); also called dBBDu186/L108
B4: dBBDu_189 / dBBDu_L126 (antibody, human IgG1, V domains shown)
VH: B1 VH with V48I, T108S, V109L, A112S
VL: B1 VL with A24R, A25T, V30L, S57Q, I61S, Q98A
notes: Tested as IgG (human IgG1 constant region, kappa light chain); also called dBBDu189/L126
B5: dBBDu_186 / dBBDu_L106 (antibody, human IgG1, V domains shown)
VH: B1 VH
VL: B1 VL with A24S, A25T, V30L, Y35F, S57A, I61M
notes: Tested as IgG (human IgG1 constant region, kappa light chain); also called dBBDu186/L106
B6: dBBDu_186 / dBBDu_L100 (antibody, human IgG1, V domains shown)
VH: B1 VH
VL: B1 VL with A24S, S57Y, I61M, A94G, Q98S
notes: Tested as IgG (human IgG1 constant region, kappa light chain); also called dBBDu186/L100
B7: GLS3000 P95S one-amino acid altered one-arm antibody (CE115HA000-pE22Hh / Kn010G3 / GLS3000 P95S-kappa) (antibody, human IgG1, kappa, L234A L235A, N297A, name in Kabat numbering)
heavy: QVQLVESGGGVVQPGRSLRLSCAASGFTFSNAWMHWVRQAPGKGLEWVAQIKAKSNNYATYYAESVKGRFTISRDDSKNSLYLQMNSLKTEDTAVYYCRYVHYGAYYGVDAWGQGTTVTVSSASTKGPSVFPLAPSSKSTSGGTAALGCLVKDYFPEPVTVSWNSGALTSGVHTFPAVLQSSGLYSLSSVVTVPSSSLGTQTYICNVNHKPSNTKVDKKVEPKSCDKTHTCPPCPAPEAAGGPSVFLFPPKPKDTLMISRTPEVTCVVVDVSHEDPEVKFNWYVDGVEVHNAKTKPREEQYASTYRVVSVLTVLHQDWLNGKEYKCKVSNKALPAPIEKTISKAKGQPREPQVYTLPPSRCELTKNQVSLSCAVKGFYPSDIAVEWESNGQPENNYKTTPPVLDSDGSFFLVSKLTVDKSRWQQGNVFSCSVMHEALHNHYTQKSLSLSPDYKDDDDK
chain: EPKSSDKTHTCPPCPAPELLGGPSVFLFPPKPKDTLMISRTPEVTCVVVDVSHEDPEVKFNWYVDGVEVHNAKTKPREEQYNSTYRVVSVLTVLHQDWLNGKEYKCKVSNKALPAPIEKTISKAKGQPREPQVCTLPPSRDELTKNQVSLWCLVKGFYPSDIAVEWESNGQPENNYKTTPPVLDSDGSFFLYSKLTVDKSRWQQGNVFSCSVMHEALHNRYTQKSLSLSP
light: DIVMTQSPLSLPVTPGEPASISCRSSQSLVHSNRNTYLHWYQQKPGQAPRLLIYKVSNRFSGVPDRFSGSGSGTDFTLKISRVEAEDVGVYYCGQGTQVSYTFGQGTKLEIKRTVAAPSVFIFPPSDEQLKSGTASVVCLLNNFYPREAKVQWKVDNALQSGNSQESVTEQDSKDSTYSLSSTLTLSKADYEKHKVYACEVTHQGLSSPVTKSFNRGEC
notes: One-arm antibody; substitution position in Kabat numbering; also called L chain altered form, Kabat 95 P to S
B8: GLS3000 V94Y one-amino acid altered one-arm antibody (CE115HA000-pE22Hh / Kn010G3 / GLS3000 V94Y-kappa) (antibody, human IgG1, kappa, L234A L235A, N297A, name in Kabat numbering)
heavy: B7 heavy
chain: B7 chain
light: B7 light with V99Y, S100P
notes: One-arm antibody; substitution position in Kabat numbering; also called L chain altered form, Kabat 94 V to Y
B9: GLS3000 V94R one-amino acid altered one-arm antibody (CE115HA000-pE22Hh / Kn010G3 / GLS3000 V94R-kappa) (antibody, human IgG1, kappa, L234A L235A, N297A, name in Kabat numbering)
heavy: B7 heavy
chain: B7 chain
light: B7 light with V99R, S100P
notes: One-arm antibody; substitution position in Kabat numbering; also called L chain altered form, Kabat 94 V to R
B10: GLS3000 Q93R one-amino acid altered one-arm antibody (CE115HA000-pE22Hh / Kn010G3 / GLS3000 Q93R-kappa) (antibody, human IgG1, kappa, L234A L235A, N297A, name in Kabat numbering)
heavy: B7 heavy
chain: B7 chain
light: B7 light with Q98R, S100P
notes: One-arm antibody; substitution position in Kabat numbering; also called L chain altered form, Kabat 93 Q to R
B11: GLS3000 Q90Y one-amino acid altered one-arm antibody (CE115HA000-pE22Hh / Kn010G3 / GLS3000 Q90Y-kappa) (antibody, human IgG1, kappa, L234A L235A, N297A, name in Kabat numbering)
heavy: B7 heavy
chain: B7 chain
light: B7 light with Q95Y, S100P
notes: One-arm antibody; substitution position in Kabat numbering; also called L chain altered form, Kabat 90 Q to Y
B12: GLS3000 T92P one-amino acid altered one-arm antibody (CE115HA000-pE22Hh / Kn010G3 / GLS3000 T92P-kappa) (antibody, human IgG1, kappa, L234A L235A, N297A, name in Kabat numbering)
heavy: B7 heavy
chain: B7 chain
light: B7 light with T97P, S100P
notes: One-arm antibody; substitution position in Kabat numbering; also called L chain altered form, Kabat 92 T to P

Tests used:
human CD137 = molecular target: T2, human CD137 (human, UniProt Q07011 24-186); test: SPR Biacore T200, IgG captured on protein A, antigen as analyte, 25 C;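 further: antigens flowed over a CM3 chip for 120 s association, KD derived from ka and kd, running buffer (ACES, NaCl, Tween20, pH 7.4) served as blank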
T2 construct: Soluble analyte in the Biacore assay; also called 4-1BB; hCD137
T2 sequence (Q07011 24-186 limits assumed): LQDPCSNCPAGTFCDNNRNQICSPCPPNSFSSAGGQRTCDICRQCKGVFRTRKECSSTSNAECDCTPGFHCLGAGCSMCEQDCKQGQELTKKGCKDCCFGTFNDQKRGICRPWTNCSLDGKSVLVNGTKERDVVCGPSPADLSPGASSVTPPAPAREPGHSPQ
Protocol: (§1) Sensor chip CM3 (GE Healthcare) was immobilized with an appropriate amount of sure protein A (GE Healthcare) by amine coupling. The selected antibodies were captured by the chip to allow interaction to human CD3ed, human CD137 and cyno CD137 as an antigen. The running buffer used was 20 mmol/l ACES, 150 mmol/l NaCl, 0.05% (w/v) Tween20, pH 7.4. All measurements were carried out at 25 degrees C. The antigens were diluted using the running buffer.
(§2) Diluted antigen solutions and the running buffer which is the blank were loaded at a flow rate of 30 micro L/min for 120 seconds to allow each of the antigens to interact with the antibody captured on the sensor chip. […] Next, to regenerate the sensor chip, 10 mmol/L glycine-HCl, pH 1.5 was loaded at a flow rate of 30 micro L/min for 30 seconds and 50 mmol/L NaOH was loaded at a flow rate 30 micro L/min for 30 seconds.
(§3) Kinetic parameters such as the association rate constant ka (1/Ms) and the dissociation rate constant kd (1/s) were calculated based on the sensorgrams obtained by the measurements. The dissociation constant KD(M) was calculated from these constants. Each parameter was calculated using the Biacore T200 Evaluation Software (GE Healthcare).

cynomolgus monkey CD137 = molecular target: T1, cynomolgus monkey CD137; test: as above
Protocol: as §1, §2, §3

human CD3ed = molecular target: T3, human CD3ed (human, UniProt P07766 23-126; P04234 22-105, limits assumed); test: as above
T3 construct: The construct injected as 'human CD3ed' in the Biacore assay is not defined; also called human CD3 epsilon/delta heterodimer
T3 sequence (P07766 23-126 limits assumed, chain 1 of 2): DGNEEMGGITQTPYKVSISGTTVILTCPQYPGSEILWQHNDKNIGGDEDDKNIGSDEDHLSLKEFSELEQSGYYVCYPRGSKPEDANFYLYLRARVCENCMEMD
T3 sequence (P04234 22-105 limits assumed, chain 2 of 2): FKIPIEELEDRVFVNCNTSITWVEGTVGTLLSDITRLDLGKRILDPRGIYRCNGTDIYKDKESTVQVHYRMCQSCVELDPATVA
Protocol: as §1, §2, §3

[1] = molecular target: T4, CD3 epsilon homodimer protein (UniProt P07766 23-126); test: SPR Biacore T200, CD3 epsilon homodimer immobilised on CM4, one-arm antibody as analyte, single-cycle kinetics; reference unaltered GLS3000 antibody;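 further: CD3 epsilon homodimer attached to the CM4 chip via amine coupling, measured at 25 °C with HBS-EP+ as running buffer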
T4 construct: also called CD3 (CD3 epsilon)
T4 sequence (P07766 23-126): as the sequence (P07766 23-126 limits assumed, chain 1 of 2) above
Protocol: An appropriate amount of CD3 epsilon homodimer protein was immobilized onto Sensor chip CM4 (GE Healthcare Japan Corp.) by the amine coupling method. Then, the antibody having an appropriate concentration was injected thereto as an analyte and allowed to interact with the CD3 epsilon homodimer protein on the sensor chip. Then, the sensor chip was regenerated by the injection of 10 mmol/L glycine-HCl (pH 1.5). The assay was conducted at 25 degrees C., and HBS-EP+(GE Healthcare Japan Corp.) was used as a running buffer. […] Each parameter was calculated using Biacore T200 Evaluation Software (GE Healthcare Japan Corp.).
Specifically, when the amount of the GLS3000-containing antibody bound was defined as X and the amount of the L chain one-amino acid altered form bound was defined as Y, a value of Z (ratio of amounts bound)=Y/X was used.

Binder | Kd (human CD137) [µM] | koff (human CD137) [s⁻¹] | kon (human CD137) [M⁻¹ s⁻¹] | Kd (cynomolgus monkey CD137) [µM] | koff (cynomolgus monkey CD137) [s⁻¹] | Kd (human CD3ed) [µM] | koff (human CD3ed) [s⁻¹] | kon (human CD3ed) [M⁻¹ s⁻¹] | kon (cynomolgus monkey CD137) [M⁻¹ s⁻¹] | dissociation constant KD(M) ratio of L chain altered form to GLS3000 [1] [ratio]
B1 | 2.31 | 0.000534 | 231 | 134 | 0.00119 | 1.88 | 0.0209 | 11100 | – | –
B2 | 2.71 | 0.000402 | 148 | 35.7 | 0.00122 | 2.06 | 0.0258 | 12500 | – | –
B3 | 2.41 | 0.00081 | 335 | 16.1 | 0.00361 | 3.01 | 0.0408 | 13600 | 225 | –
B4 | 0.513 | 0.000688 | 1340 | 3.06 | 0.00247 | 2.57 | 0.0281 | 10900 | 807 | –
B5 | 3.44 | 0.000447 | 130 | 61.3 | 0.00126 | 3.09 | 0.0318 | 10300 | – | –
B6 | 1.91 | 0.000746 | 391 | 70.4 | 0.00208 | 3.36 | 0.0546 | 16200 | – | –
B7 | – | – | – | – | – | – | – | – | – | 1.19
B8 | – | – | – | – | – | – | – | – | – | 2.45
B9 | – | – | – | – | – | – | – | – | – | 1.11
B10 | – | – | – | – | – | – | – | – | – | 0.79
B11 | – | – | – | – | – | – | – | – | – | 36.3
B12 | – | – | – | – | – | – | – | – | – | 26.7
